Molecular target: T1, activated C1s (Homo sapiens, UniProt P09871)
T1 construct: purchased Complement Technology
T1 sequence (P09871 16-437 limits assumed): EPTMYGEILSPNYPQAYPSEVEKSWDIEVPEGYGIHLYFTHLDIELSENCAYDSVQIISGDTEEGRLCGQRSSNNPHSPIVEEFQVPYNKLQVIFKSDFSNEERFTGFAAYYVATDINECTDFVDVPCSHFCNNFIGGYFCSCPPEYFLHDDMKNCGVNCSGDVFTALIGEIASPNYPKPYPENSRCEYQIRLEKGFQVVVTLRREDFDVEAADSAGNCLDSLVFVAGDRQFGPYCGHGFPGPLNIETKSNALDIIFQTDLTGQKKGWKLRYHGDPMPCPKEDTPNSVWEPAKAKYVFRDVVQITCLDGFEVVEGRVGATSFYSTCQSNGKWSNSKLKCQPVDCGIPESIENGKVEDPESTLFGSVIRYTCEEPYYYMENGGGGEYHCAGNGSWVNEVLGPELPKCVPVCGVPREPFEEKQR
T1 sequence (P09871 438-688 limits assumed): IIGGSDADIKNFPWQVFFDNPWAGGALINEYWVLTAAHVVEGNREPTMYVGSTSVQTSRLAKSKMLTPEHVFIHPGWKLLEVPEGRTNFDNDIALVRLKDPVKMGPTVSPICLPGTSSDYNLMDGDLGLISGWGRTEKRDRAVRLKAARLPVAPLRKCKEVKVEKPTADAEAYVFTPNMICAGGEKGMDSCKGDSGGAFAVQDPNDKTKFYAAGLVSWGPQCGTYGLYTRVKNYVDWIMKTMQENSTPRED
Assay: N-carboxybenzyloxythiobenzyl ester/DTNB colorimetric detection of enzymatic activity of C1s standard
Format: biochemical
Settings: for Enzymatic activity of C1s standards: conversion from Example 4
Text: In the present disclosure, the enzymatic activity of activated C1s was detected in a sample to be tested. Therefore, it was necessary to determine the enzymatic activity of a C1s standard used in the experiment and to prepare a standard curve for later C1s enzymatic activity. The enzymatic activity of the activated C1s was detected by an N-carboxybenzyloxythiobenzyl ester/5,5′-dithiobis(2-nitrobenzoic acid) colorimetric method. The method specifically included the steps as follows: • (1) Materials: 1) Analysis buffer: 50 mM Tris, 250 mM NaCl, pH=8.0; • 2) substrate: N-carboxybenzyloxythiobenzyl ester (ZKSBzl), dissolved in 10 mM dimethyl sulfoxide; and • 3) 5,5′-dithiobis(2-nitrobenzoic acid) (DTNB), dissolved in 10 mM dimethyl sulfoxide. • (2) Detection of C1s activity units: • 1. The C1s standard was diluted to 0.2 μg/mL with an assay buffer. • 2. The DNTB was added to the assay buffer at a final concentration of 200 μM, and a substrate was added to the assay buffer at a final concentration of 1,000 μM. • 3. 50 μL of 0.2 ng/μL C1s was added into a plate. • 4. 50 μL of a mixture including 1,000 μM substrate/200 μM DTNB was added to the wells to start a reaction. • 5. An absorbance at 5 min was read at 405 nm with a microplate reader. • (3) Calculation of activated C1s:
In subsequent experiments, the enzymatic activity of the C1s standard was defined in this way.

B1: C1s standard: humanized or recombinant C1s standard; activated C1s used as calibrator (protein)
chain 1: T1 sequence (P09871 16-437 limits assumed)
chain 2: T1 sequence (P09871 438-688 limits assumed)
enzymatic activity (1 μg/mL C1s standard): 0.91 pmol/min/µg
Enzymatic activity of C1s standards (6.25 μg/mL): 5.7 pmol/min/µg
Enzymatic activity of C1s standards (12.5 μg/mL): 11.4 pmol/min/µg
Enzymatic activity of C1s standards (25 μg/mL): 22.8 pmol/min/µg
Enzymatic activity of C1s standards (50 μg/mL): 45.5 pmol/min/µg
Enzymatic activity of C1s standards (100 μg/mL): 91 pmol/min/µg
Enzymatic activity of C1s standards (200 μg/mL): 182 pmol/min/µg
